The source of these data is IntAct's records for PubMed 26836588.

B1: E3 ubiquitin-protein ligase TRIM22 (Homo sapiens), Q8IYM9 (parent)
chain: MDFSVKVDIEKEVTCPICLELLTEPLSLDCGHSFCQACITAKIKESVIISRGESSCPVCQTRFQPGNLRPNRHLANIVERVKEVKMSPQEGQKRDVCEHHGKKLQIFCKEDGKVICWVCELSQEHQGHQTFRINEVVKECQEKLQVALQRLIKEDQEAEKLEDDIRQERTAWKNYIQIERQKILKGFNEMRVILDNEEQRELQKLEEGEVNVLDNLAAATDQLVQQRQDASTLISDLQRRLRGSSVEMLQDVIDVMKRSESWTLKKPKSVSKKLKSVFRVPDLSGMLQVLKELTDVQYYWVDVMLNPGSATSNVAISVDQRQVKTVRTCTFKNSNPCDFSAFGVFGCQYFSSGKYYWEVDVSGKIAWILGVHSKISSLNKRKSSGFAFDPSVNYSKVYSRYRPQYGYWVIGLQNTCEYNAFEDSSSSDPKVLTLFMAVPPCRIGVFLDYEAGIVSFFNVTNHGALIYKFSGCRFSRPAYPYFNPWNCLVPMTVCPPSS

The variants in this assay derive from B1. Conditions: with nod2_human NOD2, Q9HC29.
nod2_human NOD2, Q9HC29, sequence (Q9HC29 whole entry): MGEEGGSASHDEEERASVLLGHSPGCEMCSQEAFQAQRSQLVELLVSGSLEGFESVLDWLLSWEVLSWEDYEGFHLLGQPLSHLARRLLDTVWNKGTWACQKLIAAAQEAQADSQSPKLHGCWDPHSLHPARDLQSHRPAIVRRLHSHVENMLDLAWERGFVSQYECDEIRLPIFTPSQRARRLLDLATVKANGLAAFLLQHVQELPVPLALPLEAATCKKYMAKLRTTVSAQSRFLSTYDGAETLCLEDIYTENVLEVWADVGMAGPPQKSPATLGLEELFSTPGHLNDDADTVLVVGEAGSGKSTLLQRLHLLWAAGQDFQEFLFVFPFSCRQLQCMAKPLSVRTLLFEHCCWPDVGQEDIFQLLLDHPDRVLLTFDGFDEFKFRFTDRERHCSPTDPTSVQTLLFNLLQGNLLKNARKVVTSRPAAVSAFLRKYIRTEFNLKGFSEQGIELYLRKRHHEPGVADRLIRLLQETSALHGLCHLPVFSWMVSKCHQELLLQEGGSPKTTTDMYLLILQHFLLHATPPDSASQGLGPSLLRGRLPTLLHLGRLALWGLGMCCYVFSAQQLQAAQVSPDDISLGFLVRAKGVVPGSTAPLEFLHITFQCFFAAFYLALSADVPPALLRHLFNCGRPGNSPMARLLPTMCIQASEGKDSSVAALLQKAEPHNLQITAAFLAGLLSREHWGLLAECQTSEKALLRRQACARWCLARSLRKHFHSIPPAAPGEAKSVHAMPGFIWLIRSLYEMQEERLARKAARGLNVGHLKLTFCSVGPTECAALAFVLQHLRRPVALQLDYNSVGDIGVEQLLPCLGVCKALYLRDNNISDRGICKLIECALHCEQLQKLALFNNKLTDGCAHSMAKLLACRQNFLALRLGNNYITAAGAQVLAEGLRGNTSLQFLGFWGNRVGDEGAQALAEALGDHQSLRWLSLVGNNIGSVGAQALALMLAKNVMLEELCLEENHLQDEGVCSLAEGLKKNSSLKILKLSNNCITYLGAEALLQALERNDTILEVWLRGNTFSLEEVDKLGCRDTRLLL
On to R150T, for which the “effect of a mutation on the interaction” value is listed as “with no effect”. The value for S244L was “decreasing interaction strength”; that for R442C was “disrupting interaction strength”. R321K: the “effect of a mutation on the interaction” value is “decreasing interaction strength”.
